US20030028002A1, “Cyclin D binding factor, and uses thereof” (published 2003)

T1: DMP1 (cyclin D-binding myb-like protein), murine, full length (mouse, UniProt Q8CE22 1-761, multiple phosphorylated forms when made in Sf9 cells (sites not given))
T1 sequence: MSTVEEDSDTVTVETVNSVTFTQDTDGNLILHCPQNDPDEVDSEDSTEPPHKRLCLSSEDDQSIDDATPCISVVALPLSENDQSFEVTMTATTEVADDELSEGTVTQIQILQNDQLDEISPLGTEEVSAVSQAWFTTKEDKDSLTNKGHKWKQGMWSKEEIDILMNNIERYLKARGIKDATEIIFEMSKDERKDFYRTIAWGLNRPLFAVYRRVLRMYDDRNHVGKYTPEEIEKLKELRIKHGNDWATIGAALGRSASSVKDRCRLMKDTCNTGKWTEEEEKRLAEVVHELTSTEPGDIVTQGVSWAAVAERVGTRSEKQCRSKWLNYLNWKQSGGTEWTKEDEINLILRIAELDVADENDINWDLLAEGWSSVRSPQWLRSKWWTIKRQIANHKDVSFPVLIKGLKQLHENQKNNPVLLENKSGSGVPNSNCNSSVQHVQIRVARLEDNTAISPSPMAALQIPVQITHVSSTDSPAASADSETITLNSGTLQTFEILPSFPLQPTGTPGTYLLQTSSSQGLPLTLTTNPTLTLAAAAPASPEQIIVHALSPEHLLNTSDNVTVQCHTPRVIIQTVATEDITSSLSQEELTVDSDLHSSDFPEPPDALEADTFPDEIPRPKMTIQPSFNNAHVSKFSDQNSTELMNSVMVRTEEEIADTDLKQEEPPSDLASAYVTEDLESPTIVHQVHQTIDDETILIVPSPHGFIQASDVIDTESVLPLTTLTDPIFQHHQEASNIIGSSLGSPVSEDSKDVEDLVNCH

T2: GST-DMP1 fusion protein (GST fused to residues 176-761 of DMP1)
T2 chain: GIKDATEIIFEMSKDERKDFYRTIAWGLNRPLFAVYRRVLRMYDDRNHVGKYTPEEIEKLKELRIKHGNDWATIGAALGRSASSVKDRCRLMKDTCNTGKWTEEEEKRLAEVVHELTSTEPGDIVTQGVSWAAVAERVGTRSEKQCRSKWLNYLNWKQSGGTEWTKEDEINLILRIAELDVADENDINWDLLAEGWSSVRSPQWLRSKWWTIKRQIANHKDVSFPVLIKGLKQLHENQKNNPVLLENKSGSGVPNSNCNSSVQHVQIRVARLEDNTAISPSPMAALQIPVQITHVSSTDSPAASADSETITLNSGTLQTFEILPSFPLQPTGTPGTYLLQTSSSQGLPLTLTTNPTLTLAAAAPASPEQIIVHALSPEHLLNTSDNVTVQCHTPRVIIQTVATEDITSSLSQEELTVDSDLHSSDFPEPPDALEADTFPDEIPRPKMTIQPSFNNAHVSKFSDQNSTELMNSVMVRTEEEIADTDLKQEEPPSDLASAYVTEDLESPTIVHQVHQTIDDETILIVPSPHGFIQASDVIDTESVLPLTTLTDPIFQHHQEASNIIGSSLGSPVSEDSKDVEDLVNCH

B1: cyclin D2 (other, mouse, UniProt P30280 1-289, looked up)
chain: MELLCCEVDPVRRAVPDRNLLEDRVLQNLLTIEERYLPQCSYFKCVQKDIQPYMRRMVATWMLEVCEEQKCEEEVFPLAMNYLDRFLAGVPTPKTHLQLLGAVCMFLASKLKETIPLTAEKLCIYTDNSVKPQELLEWELVVLGKLKWNLAAVTPHDFIEHILRKLPQQKEKLSLIRKHAQTFIALCATDFKFAMYPPSMIATGSVGAAICGLQQDDEVNTLTCDALTELLAKITHTDVDCLKACQEQIEALLLNSLQQFRQEQHNAGSKSVEDPDQATTPTDVRDVDL
B2: cyclin D3 (other, mouse, UniProt P30282 1-292, looked up)
chain: MELLCCEGTRHAPRAGPDPRLLGDQRVLQSLLRLEERYVPRASYFQCVQKEIKPHMRKMLAYWMLEVCEEQRCEEDVFPLAMNYLDRYLSCVPTRKAQLQLLGTVCLLLASKLRETTPLTIEKLCIYTDQAVAPWQLREWEVLVLGKLKWDLAAVIAHDFLALILHRLSLPSDRQALVKKHAQTFLALCATDYTFAMYPPSMIATGSIGAAVLGLGACSMSADELTELLAGITGTEVDCLRACQEQIEAALRESLREAAQTAPSPVPKAPRGSSSQGPSQTSTPTDVTAIHL
B3: cyclin D1-CDK4 complex (protein)
chain 1: MEHQLLCCEVETIRRAYPDTNLLNDRVLRAMLKTEETCAPSVSYFKCVQKEIVPSMRKIVATWMLEVCEEQKCEEEVFPLAMNYLDRFLSLEPLKKSRLQLLGATCMFVASKMKETIPLTAEKLCIYTDNSIRPEELLQMELLLVNKLKWNLAAMTPHDFIEHFLSKMPEADENKQTIRKHAQTFVALCATDVKFISNPPSMVAAGSVVAAMQGLNLGSPNNFLSCYRTTHFLSRVIKCDPDCLRACQEQIEALLESSLRQAQQNVDPKATEEEGEVEEEAGLACTPTDVRDVDI
chain 2: MAATRYEPVAEIGVGAYGTVYKARDPHSGHFVALKSVRVPNGGAAGGGLPVSTVREVALLRRLEAFEHPNVVRLMDVCATSRTDRDIKVTLVFEHIDQDLRTYLDKAPPPGLPVETIKDLMRQFLSGLDFLHANCIVHRDLKPENILVTSNGTVKLADFGLARIYSYQMALTPVVVTLWYRAPEVLLQSTYATPVDMWSVGCIFAEMFRRKPLFCGNSEADQLGKIFDLIGLPPEDDWPREVSLPRGAFAPRGPRPVQSVVPEMEESGAQLLLEMLTFNPHKRISAFRALQHSYLHKEESDAE
B4: cyclin D2-CDK4 complex (protein)
chain 1: MELLCCEVDPVRRAVPDRNLLEDRVLQNLLTIEERYLPQCSYFKCVQKDIQPYMRRMVATWMLEVCEEQKCEEEVFPLAMNYLDRFLAGVPTPKTHLQLLGAVCMFLASKLKETIPLTAEKLCIYTDNSVKPQELLEWELVVLGKLKWNLAAVTPHDFIEHILRKLPQQKEKLSLIRKHAQTFIALCATDFKFAMYPPSMIATGSVGAAICGLQQDDEVNTLTCDALTELLAKITHTDVDCLKACQEQIEALLLNSLQQFRQEQHNAGSKSVEDPDQATTPTDVRDVDL
chain 2: MAATRYEPVAEIGVGAYGTVYKARDPHSGHFVALKSVRVPNGGAAGGGLPVSTVREVALLRRLEAFEHPNVVRLMDVCATSRTDRDIKVTLVFEHIDQDLRTYLDKAPPPGLPVETIKDLMRQFLSGLDFLHANCIVHRDLKPENILVTSNGTVKLADFGLARIYSYQMALTPVVVTLWYRAPEVLLQSTYATPVDMWSVGCIFAEMFRRKPLFCGNSEADQLGKIFDLIGLPPEDDWPREVSLPRGAFAPRGPRPVQSVVPEMEESGAQLLLEMLTFNPHKRISAFRALQHSYLHKEESDAE
B5: cyclin D3-CDK4 complex (protein)
chain 1: MELLCCEGTRHAPRAGPDPRLLGDQRVLQSLLRLEERYVPRASYFQCVQKEIKPHMRKMLAYWMLEVCEEQRCEEDVFPLAMNYLDRYLSCVPTRKAQLQLLGTVCLLLASKLRETTPLTIEKLCIYTDQAVAPWQLREWEVLVLGKLKWDLAAVIAHDFLALILHRLSLPSDRQALVKKHAQTFLALCATDYTFAMYPPSMIATGSIGAAVLGLGACSMSADELTELLAGITGTEVDCLRACQEQIEAALRESLREAAQTAPSPVPKAPRGSSSQGPSQTSTPTDVTAIHL
chain 2: MAATRYEPVAEIGVGAYGTVYKARDPHSGHFVALKSVRVPNGGAAGGGLPVSTVREVALLRRLEAFEHPNVVRLMDVCATSRTDRDIKVTLVFEHIDQDLRTYLDKAPPPGLPVETIKDLMRQFLSGLDFLHANCIVHRDLKPENILVTSNGTVKLADFGLARIYSYQMALTPVVVTLWYRAPEVLLQSTYATPVDMWSVGCIFAEMFRRKPLFCGNSEADQLGKIFDLIGLPPEDDWPREVSLPRGAFAPRGPRPVQSVVPEMEESGAQLLLEMLTFNPHKRISAFRALQHSYLHKEESDAE
B6: cyclin D1 (other, mouse, UniProt P25322 1-295, looked up)
chain: MEHQLLCCEVETIRRAYPDTNLLNDRVLRAMLKTEETCAPSVSYFKCVQKEIVPSMRKIVATWMLEVCEEQKCEEEVFPLAMNYLDRFLSLEPLKKSRLQLLGATCMFVASKMKETIPLTAEKLCIYTDNSIRPEELLQMELLLVNKLKWNLAAMTPHDFIEHFLSKMPEADENKQTIRKHAQTFVALCATDVKFISNPPSMVAAGSVVAAMQGLNLGSPNNFLSCYRTTHFLSRVIKCDPDCLRACQEQIEALLESSLRQAQQNVDPKATEEEGEVEEEAGLACTPTDVRDVDI

Experiments:
cyclin D3 = target: B2; assay: GST pull-down of 35S-labelled in vitro translated cyclin on glutathione-Sepharose, gel autoradiography
Experimental: (§1) Because DMP1 interacted with cyclin D2 in yeast, the ability of a glutathione S-transferase (GST)-DMP1 fusion protein to bind D-type cyclins in vitro is examined. GST is fused to residues 176-761 of DMP1 (in lieu of GAL4 in the original cDNA clone), and the bacterially synthesized recombinant protein is incubated with [³⁵S]methionine-labeled D-type cyclins prepared by transcription and translation in vitro. As a positive control, GST-RB which can specifically bind D-type cyclins in this assay is used (15). Bound cyclins recovered on washed glutathione-Sepharose beads are analyzed by electrophoresis on denaturing gels. […] GST-DMP1 is less efficient than GST-RB in binding cyclins D2 and D3 (˜4-fold less binding), and under these conditions, an interaction with D1 is not detected (lanes 3, 7, 11). No labeled proteins bind to GST alone (lanes 4, 8, 12), and neither cyclin A nor cyclin E bind to GST-RB or to GST-DMP1. A cyclin D2 mutant disrupted in an amino-terminal Leu-X-Cys-X-Glu pentapeptide that is required for high efficiency GST-RB binding is not detectably compromised in its interaction with GST-DMP1 (negative data not shown); in agreement, DMP1 bears no homology to RB or to RB-related family members (p107 and p130).

cyclin D2 = target: B1; assay: as above
Experimental: as §1

[1] = target: T1, DMP1 (cyclin D-binding myb-like …); assay: cell-based or functional assay
[2] = target: T2, GST-DMP1 fusion protein (GST fused to …)
[3] = target: GST-RB fusion protein [GST: P08515]
Chain of GST-RB fusion protein [GST: P08515] (P08515 whole entry, looked up, the tested form may be a part): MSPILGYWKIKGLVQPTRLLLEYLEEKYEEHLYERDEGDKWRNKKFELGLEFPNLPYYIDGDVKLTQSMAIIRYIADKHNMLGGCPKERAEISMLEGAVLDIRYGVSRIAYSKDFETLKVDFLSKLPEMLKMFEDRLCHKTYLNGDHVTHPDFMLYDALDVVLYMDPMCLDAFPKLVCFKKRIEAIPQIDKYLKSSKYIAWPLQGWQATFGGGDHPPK

Row | Molecule | Luciferase Activity (DMP1 transactivation of a DMP1-responsive reporter; DMP1 alone 8.4, no DMP1 1.0) [1] | in vitro phosphorylation of the GST fusion protein by Sf9 lysates (32P) [2] | in vitro phosphorylation of the GST fusion protein by Sf9 lysates (32P) [3] | other results
1 | GST-RB fusion protein (from UniProt P08515 1-218) |  |  |  | percent of the total input protein bound (cyclin D3): 20%; percent of the total input protein bound (cyclin D2): 20%
2 | B1 | 1.6 relative to empty expression vector = 1.0 |  |  | 
3 | B2 | 1.6 relative to empty expression vector = 1.0 |  |  | 
4 | B3 |  | lysates containing active cyclin D-CDK4 complexes phosphorylate both | Under equivalent conditions, GST-RB is always a preferred substrate | 
5 | B4 |  | lysates containing active cyclin D-CDK4 complexes phosphorylate both | Under equivalent conditions, GST-RB is always a preferred substrate | 
6 | B5 |  | different preparations of cyclin D3-CDK4 are routinely more active than D2- or D1-containing holoenzymes in phosphorylating DMP1 | Under equivalent conditions, GST-RB is always a preferred substrate | 
7 | B6 | 1.5 relative to empty expression vector = 1.0 |  |  | 
